Earlier results on two substances are cited in paper PMC11641302.

One may read the pKa as the pH at which an ionisable group is half protonated.

In data set [1] the target is Nterm1 (UniProt position 2, ----MPVYMVY).
Data set [2] addresses Nterm1 (UniProt position 2, ----MPLLKFD).

“cis-3-chloroacrylic acid dehalogenase (cis-CaaD) (Coryneform bacterium)”: the pKa in data set [1] was approximately 9.3.

For “malonate semialdehyde decarboxylase (MSAD) (Pseudomonas pavonaceae)”, in data set [2], the pKa was approximately 9.2.
